Laboratory results reported in US20250281630A1 (TORAY INDUSTRIES, published 2025).
Residue numbers refer to the chain shown, from its start.

T1: mouse CAPRIN-1 on mouse cancer cells (mouse, UniProt Q60865 2-707)
T1 construct: whole, on cells
T1 sequence (looked up): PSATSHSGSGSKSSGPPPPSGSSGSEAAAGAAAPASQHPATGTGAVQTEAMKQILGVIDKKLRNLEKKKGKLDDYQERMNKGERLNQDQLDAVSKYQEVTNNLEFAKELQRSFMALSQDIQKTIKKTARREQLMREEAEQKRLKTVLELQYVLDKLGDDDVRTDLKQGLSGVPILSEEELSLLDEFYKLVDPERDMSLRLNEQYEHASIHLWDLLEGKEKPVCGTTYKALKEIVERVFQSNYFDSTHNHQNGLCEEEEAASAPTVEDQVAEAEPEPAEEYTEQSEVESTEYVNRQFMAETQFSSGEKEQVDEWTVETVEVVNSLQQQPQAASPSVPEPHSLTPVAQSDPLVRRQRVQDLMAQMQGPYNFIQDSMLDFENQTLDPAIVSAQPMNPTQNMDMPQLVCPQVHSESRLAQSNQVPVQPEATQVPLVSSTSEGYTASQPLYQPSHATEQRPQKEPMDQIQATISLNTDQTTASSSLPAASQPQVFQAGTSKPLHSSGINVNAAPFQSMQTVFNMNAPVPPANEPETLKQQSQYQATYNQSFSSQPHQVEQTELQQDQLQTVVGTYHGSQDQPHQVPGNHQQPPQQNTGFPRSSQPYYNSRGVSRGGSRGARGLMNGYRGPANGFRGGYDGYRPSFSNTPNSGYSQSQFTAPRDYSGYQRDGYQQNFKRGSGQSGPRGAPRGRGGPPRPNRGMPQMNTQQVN

T2: human CAPRIN-1 on the cell membrane surface of human cancer cells (human, UniProt Q14444 2-709)
T2 construct: whole, on cells
T2 sequence (looked up): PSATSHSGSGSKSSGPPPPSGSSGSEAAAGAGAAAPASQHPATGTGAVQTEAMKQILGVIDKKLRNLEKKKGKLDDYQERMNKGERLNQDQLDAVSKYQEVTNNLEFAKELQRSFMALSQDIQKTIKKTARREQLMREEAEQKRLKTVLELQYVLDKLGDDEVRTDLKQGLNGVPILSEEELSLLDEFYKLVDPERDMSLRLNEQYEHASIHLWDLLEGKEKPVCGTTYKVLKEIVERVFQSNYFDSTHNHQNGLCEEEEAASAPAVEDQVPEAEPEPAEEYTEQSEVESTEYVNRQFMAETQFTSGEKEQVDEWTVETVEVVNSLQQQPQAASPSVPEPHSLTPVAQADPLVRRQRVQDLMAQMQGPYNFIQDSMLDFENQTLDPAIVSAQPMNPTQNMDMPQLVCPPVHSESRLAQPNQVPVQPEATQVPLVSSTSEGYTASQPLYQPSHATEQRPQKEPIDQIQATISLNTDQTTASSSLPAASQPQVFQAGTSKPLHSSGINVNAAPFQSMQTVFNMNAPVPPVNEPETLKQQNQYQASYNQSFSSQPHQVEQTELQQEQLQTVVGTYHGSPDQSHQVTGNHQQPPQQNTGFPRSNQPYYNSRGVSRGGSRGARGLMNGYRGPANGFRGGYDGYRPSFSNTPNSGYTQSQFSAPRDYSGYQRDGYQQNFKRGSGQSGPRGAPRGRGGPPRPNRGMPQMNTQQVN

B1: Conjugate 46 (antibody, human IgG1, V domains shown)
VH: EVQLVESGGGLVQPGGSLRLSCAASGFSLSSHSLGWVRQAPGKGLEWIGDIRSGGSAYYANWAKGRFTISRDNSKNTLYLQMNSLRAEDTAVYYCTRTNGPSDLTNRLDLWGQGTLVTVSS
VL: EIVLTQSPSSLSASVGDRVTINCQASQSLYNNENLAWFQQKPGKVPKRLIYGASTLASGVSSRFSGSGSGTEFTLTISNLQPEDFATYYCLGEFSCGSADCFAFGGGTKVEIK
notes: human IgG1 constant regions; also called conjugate with MMAE using humanized antibody #40
B2: Conjugate 122 (antibody, V domains shown)
VH: B1 VH
VL: QVLTQSPSSLSASVGDRVTINCQASQSLYNNENLAWFQQKPGKVPKRLIYGASTLASGVSSRFSGSGSGTEFTLTISSLQCEDFAIYYCLGEFSCGSADCFAFGGGTKVEIK
notes: human IgG1 constant regions; also called conjugate with MMAE using humanized antibody #36
B3: Conjugate 124 (antibody, V domains shown)
VH: B1 VH
VL: B1 VL with I2Q, T87I
notes: human IgG1 constant regions; also called conjugate with MMAE using humanized antibody #38
B4: Conjugate 47 (antibody, human IgG1, V domains shown)
VH: B1 VH with Y94F
VL: B1 VL with I2Q, T87I
notes: human IgG1 constant regions; also called conjugate with MMAE using humanized antibody #41
B5: Conjugate 127 (antibody, V domains shown)
VH: B1 VH with Y94F
VL: B1 VL with I2Q, T87I
notes: as for B4
B6: Conjugate 125 (antibody, V domains shown)
VH: B1 VH with Y94F
VL: B1 VL
notes: human IgG1 constant regions; also called conjugate with MMAE using humanized antibody #39
B7: Conjugate 126 (antibody, V domains shown)
VH: B1 VH
VL: B1 VL
notes: as for B1
B8: Conjugate 95 (antibody, V domains shown)
VH: AVTLDESGGGLQTPGGALSLVCKASGFTFSGYDMLWVRQAPGKGLEWVAGIGSTGGGTDYGAAVKGRATISRDNGQSTVRLQLNNLRAEDTATYYCAKVAGGCNSGYCRDSPGSIDAWGHGTEVIVS
VL: AVTQQPASVSANPGETVKITCSGGGSRNYYGWYQQKSPGSVPVTVIYYDDQRPSNIPSRFSGALSGSTSTLTITGVQADDEAVYFCGSADSNTYEGSFGAGTTLTVL
notes: human IgG1 constant regions; also called conjugate with MMAE using humanized antibody #9
B9: Conjugate 99 (antibody, V domains shown)
VH: GAELVRSGASVKMSCKASGYSFTDYNMYWVKQTPGQGLEWIGYIYPGNGGTNYNQKFKGKATLTADTSSSTAYMQISSLTSEDSAVYFCARDYDDGGYAMDYWGQGTTVTVSS
VL: DIQMTQSPASLSASVGETVTITCRASGNIHNYLTWYQQKQGKSPQLLVYNAKTLADGVPSRFSGSGSGTQYSLKINRLQPEDFGSYYCQHFWNIPWTFGGGTKLNSR
notes: human IgG1 constant regions; also called conjugate with MMAE using humanized antibody #13
B10: Conjugate 100 (antibody, V domains shown)
VH: DAELVKPGASVKISCKASGYTFTDHSIHWVQQKPEQGLEWIGYISPGNGNIKYNEKFKGKATLTADKSSSTAYMQLNSLTSEDSAVYFCKRSLGRGGPYYFDYWGQGTTVTVSS
VL: DIVLTQAAPSLPVTPGESVSISCRSSKSLLHSNGNTYLYWFLQRPGQSPQLLIYRMSNLASGVPDRFSGSGSGTAFTLRISRVEAEDVGVYYCMQHREYPVTFGSGPN
notes: human IgG1 constant regions; also called conjugate with MMAE using humanized antibody #14

molecular target: T1, mouse CAPRIN-1 on mouse cancer cells; assay: flow cytometry, Renca and 4T1 cells

Binding result, binds:
B1
B2
B3
B4
B5
B6
B7
B8
B9
B10

molecular target: T2, human CAPRIN-1 on the cell membrane …; assay: flow cytometry, BT474 cells
Procedure: The tube was left at 4° C. for 1 hour. After washing with PBS, Alexa 488-labeled anti-rabbit IgG (H+L) diluted 100-fold with PBS(-) containing 0.5% FBS (0.5% FBS-PBS(-)) was added thereto, and the tube was left at 4° C. for 1 hour. After washing with 0.5% FBS-PBS(-), the cells were reacted with BD Horizon Fixable Viability Stain (FVS) Reagents (FVS450, Becton, Dickinson and Company) to stain dead cells, and the fluorescence intensity was then measured using FACSFortessa™ (Becton, Dickinson and Company).

Binding result, binds:
B1
B2
B3
B4
B5
B6
B7
B8
B9
B10
